In patent US20160297884A1 (Pfizer, published 2016):
Numbering of substitutions follows the chain as printed.

T1: Human BCMA (human, UniProt Q02223 1-54, limits assumed)
T1 construct: Soluble analyte in SPR; construct not described; also called huBCMA; B-cell maturation antigen
T1 sequence (looked up): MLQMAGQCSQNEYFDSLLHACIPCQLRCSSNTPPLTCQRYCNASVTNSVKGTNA

T2: Human BCMA (human, UniProt Q02223 1-54, limits assumed)
T2 construct: also called huBCMA; B-cell maturation antigen
T2 sequence (looked up): T1 sequence (looked up)

B1: L3.PY/H2.DY (antibody, V domains shown)
VH: EVQLLESGGGLVQPGGSLRLSCAASGFTFGSYAMTWVRQAPGKGLEWVSAIDYSGGNTFYADSVKGRFTISRDNSKNTLYLQMNSLRAEDTAVYYCARVSPIASGMDYWGQGTLVTVSS
VL: EIVLTQSPGTLSLSPGERATLSCRASQSVSSSYLAWYQQKPGQAPRLLIYGASSRATGIPDRFSGSGSGTDFTLTISRLEPEDFAVYYCQHYPYPPSFTFGQGTKVEIK
notes: IgG
B2: L3.PY/H2.QL (antibody, V domains shown)
VH: B1 VH with D52S, Y53G, S63Q, V64L
VL: B1 VL
notes: IgG
B3: L3.PY/H2.LT (antibody, V domains shown)
VH: B1 VH with D52S, Y53L, S54T
VL: B1 VL
notes: IgG
B4: L3.PY/H2.HA (antibody, V domains shown)
VH: B1 VH with D52S, Y53H, S54A
VL: B1 VL
notes: IgG
B5: COMBO_Rd4_0.6nM_C20 (antibody, V domains shown)
VH: EVQLLESGGGLVQPGGSLRLSCAASGFTFSSYPMSWVRQAPGKGLEWVSAIGGSGGSLPYADSVKGRFTISRDNSKNTLYLQMNSLRAEDTAVYYCARYWPMDSWGQGTLVTVSS
VL: EIVLTQSPGTLSLSPGERATLSCRASQSVSYLYLAWYQQKPGQAPRLLMYDASIRATGIPDRFSGSGSGTDFTLTISRLEPEDFAVYYCQQYMEWPLTFGQGTKVEIK
notes: IgG
B6: COMBO_Rd4_6nM_C12 (antibody, V domains shown)
VH: EVQLLESGGGLVQPGGSLRLSCAASGFTFSSYPMSWVRQAPGKGLEWVSAALGSGGSTYYADSVKGRFTISRDNSKNTLYLQMNSLRAEDTAVYYCARYWPMDSWGQGTLVTVS
VL: B5 VL with Y31A, L32S, E94S
notes: IgG
B7: A02_Rd4_0.6nM_C18 (antibody, V domains shown)
VH: B5 VH with P33A, S35N, I51V, G52L, G53D, L58T, P59Y, D103S, S104L
VL: B5 VL with Y31E, M93F, E94G
notes: IgG
B8: COMBO_Rd4_0.6nM_C22 (antibody, V domains shown)
VH: B5 VH with P33A, S35N, G52S, G53D, L58R, P59W, A97T, S104I
VL: B5 VL with Q27V, S28R, Y31S, L32T, E94K
notes: IgG; also called COM22
B9: P5A2_VHVL (antibody, V domains shown)
VH: B5 VH with P33A, S35N, G52S, G53D, L58T, P59Y, S104I
VL: B5 VL with Y31S, L32S, M93G, E94S
notes: IgG
B10: COMBO_Rd4_0.6nM_C30 (antibody, V domains shown)
VH: B5 VH with L58T, P59Y
VL: B5 VL with L32M, M49I, M93K, E94S
notes: IgG
B11: COMBO_Rd4_6nM_C09 (antibody, V domains shown)
VH: B5 VH with G52F, G53A, L58T, P59Y
VL: B5 VL with Y31A, L32Q, M93Q, E94A
notes: IgG
B12: COMBO_Rd4_6nM_C21 (antibody, V domains shown)
VH: B5 VH
VL: B5 VL with Y31A, L32A, E94C
notes: IgG
B13: COMBO_Rd4_6nM_C07 (antibody, V domains shown)
VH: B5 VH with D103A, S104D
VL: B5 VL with S28P, V29I, Y31S, L32S, M93Q, E94G
notes: IgG
B14: COMBO_Rd4_6nM_C22 (antibody, V domains shown)
VH: B5 VH with P33A, S35N, I51C, G52L, G53D, L58T, P59Y
VL: B5 VL with Y31S, L32S, M93Q, E94G
notes: IgG
B15: COMBO_Rd4_6nM_C02 (antibody, V domains shown)
VH: B5 VH with P33A, S35N, G52S, G53D, S57F, L58V, P59Y
VL: B5 VL with Y31S, L32S, M93E, E94F
notes: IgG
B16: COMBO_Rd4_6nM_C11 (antibody, V domains shown)
VH: B5 VH with P59G
VL: B5 VL with Y31P, M93K, E94A
notes: IgG
B17: COMBO_Rd4_6nM_C08 (antibody, V domains shown)
VH: B5 VH with G56T, S57W, L58T, P59Y
VL: B5 VL with Y31S, L32S, M93Q, E94K
notes: IgG
B18: COMBO_Rd4_6nM_C25 (antibody, V domains shown)
VH: B5 VH with L58T, P59Y, S104P
VL: B5 VL with Y31S, L32P, M93Q, E94S
notes: IgG
B19: COMBO_Rd4_0.6nM_C23 (antibody, V domains shown)
VH: B5 VH with I51L, G52F, L58T, P59Y
VL: B5 VL with A25P, S26R, Y31S, L32S, M93Q, E94D
notes: IgG
B20: COMBO_Rd4_6nM_C10 (antibody, V domains shown)
VH: B5 VH with L58I, P59H
VL: B5 VL with Y31S, L32S, L34W, A35G, M93Q, E94C
notes: IgG
B21: P5C1_VHVL (antibody, V domains shown)
VH: B5 VH with L58T, P59Y
VL: B5 VL with Y31S, L32T, M49I, I54S, T57P, M93S, E94T, W95S
notes: IgG; also called PC1
B22: COMBO_Rd4_0.6nM_C29 (antibody, V domains shown)
VH: B5 VH with S104I
VL: B5 VL with Y31S, L32S, M93Q, E94S
notes: IgG

Biological target: T3, cynomolgus monkey BCMA (cynomolgus monkey, UniProt A0A2K5UD97 1-53)
T3 construct: Soluble analyte in SPR; construct not described; also called cyBCMA; Cyno BCMA
T3 sequence (A0A2K5UD97 entry or part of it): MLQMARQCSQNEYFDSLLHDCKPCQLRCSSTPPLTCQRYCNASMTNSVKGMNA
Assay: SPR, IgG immobilised, 37 C
Procedure: (§1) All experiments were performed on a Bio-Rad Proteon XPR36 surface Plasmon resonance biosensor (Bio-Rad, Hercules, Calif.). […] The analysis temperature for the immobilization was 25° C. and the running buffer was HBS-T+(10 mM HEPES, 150 mM NaCl, 0.05% Tween-20, pH 7.4). Channels were activated in the analyte (horizontal) direction by injecting a mixture of 1 mM ECD and 0.25 mM NHS for 3 minutes at a flow rate of 30 μL/min. IgGs were immobilized on the activated spots by injecting them in the ligand (vertical) direction at 20 μg/mL in 10 mM Acetate pH 4.5 buffer for 1.5 minutes at […]. The activated surfaces were blocked by injecting 1M ethanolamine, pH 8.5 in the analyte direction for 3 minutes at 30 μL/min.
(§2) The analysis temperature for the BCMA binding analysis was 37° C. or 25° C. in a running buffer of HBS-T+, supplemented with 1 mg/mL BSA. A kinetic titration method was employed for the interaction analysis as described in Abdiche, et al. Human BCMA (huBCMA) or cynomolgus monkey BCMA (cyBCMA) analyte was injected in the analyte direction using a series of injections from low to high concentration. The concentrations used were 0.08 nM, 0.4 nM, 2 nM, 10 nM and 50 nM (a 5-membered series, with a 5-fold dilution factor and top concentration of 50 nM). The association time for a given analyte dilution was two minutes. Immediately after the 50 nM BCMA injection, dissociation was monitored for 2 hours.
(§3) The sensorgrams were double-referenced and fit to a 1:1 Langmuir with mass transport kinetic titration model in BIAevaluation Software version 4.1.1 (GE Lifesciences, Piscataway, N.J.).

Binder | Kd [pM] | T ½ [min] | koff [s⁻¹] | kon [M⁻¹ s⁻¹]
B1 | 2760 | 1.87 | 0.00618 | 2.24e+06
B2 | 6160 | 0.91 | 0.0126 | 2.05e+06
B3 | 3630 | 1.53 | 0.00757 | 2.09e+06
B4 | 3790 | 1.53 | 0.00755 | 1.99e+06

Biological target: T1, Human BCMA
Assay: SPR, IgG immobilised, 37 C
Procedure: as §1, §2, §3

Binder | Kd [pM] | T ½ [min] | koff [s⁻¹] | kon [M⁻¹ s⁻¹]
B1 | 530 | 8.37 | 0.00138 | 2.6e+06
B2 | 820 | 5.31 | 0.00218 | 2.64e+06
B3 | 540 | 8.95 | 0.00129 | 2.4e+06
B4 | 600 | 7.89 | 0.00147 | 2.43e+06

Biological target: T2, Human BCMA
Assay: SPR, IgG immobilised, human BCMA analyte
Outline: (§4)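 Kinetic titration: huBCMA/cyBCMA 0.08–50 nM (5-fold steps), 2 min association per step, 2 h dissociation after top dose; HBS-T+ + 1 mg/mL BSA, 25 or 37° C; double-referenced, fit 1:1 Langmuir with mass transport.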

Binder | Kd [pM] | koff [s⁻¹] | kon [M⁻¹ s⁻¹]
B5 | 19 | 0.000146 | 7.65e+06
B6 | 20 | 0.00027 | 1.38e+07
B7 | 48 | 0.000229 | 4.73e+06
B8 | 36 | 7.15e-05 | 1.97e+06
B9 | 5570 | 0.0387 | 6.96e+06
B10 | 65 | 0.000282 | 4.35e+06
B11 | 16 | 0.000143 | 8.85e+06
B12 | 6 | 7.34e-05 | 1.17e+07
B13 | 35 | 0.000371 | 1.05e+07
B14 | 256 | 0.000775 | 3.03e+06
B15 | 422 | 0.000443 | 1.05e+06
B16 | 18 | 0.000124 | 6.74e+06
B17 | 19 | 0.000169 | 8.99e+06
B18 | 14 | 0.000113 | 7.98e+06
B19 | 28 | 0.00021 | 7.39e+06
B20 | 18 | 9.72e-05 | 5.47e+06
B21 | 5990 | 0.0692 | 1.16e+07
B22 | 19 | 0.000277 | 1.47e+07

Biological target: T4, Cynomolgus monkey BCMA (cynomolgus monkey)
T4 construct: Soluble analyte in SPR; also called cyBCMA; Cyno BCMA
Assay: SPR, IgG immobilised, cyno BCMA analyte
Outline: as §4

Binder | Kd [pM] | koff [s⁻¹] | kon [M⁻¹ s⁻¹]
B5 | 92 | 0.000284 | 3.09e+06
B6 | 148 | 0.000486 | 3.29e+06
B7 | 197 | 0.000639 | 3.24e+06
B8 | 50 | 6.66e-05 | 1.34e+06
B9 | 10200 | 0.0164 | 1.61e+06
B10 | 481 | 0.000808 | 1.68e+06
B11 | 134 | 0.000318 | 2.37e+06
B12 | 78 | 0.000248 | 3.17e+06
B13 | 237 | 0.000934 | 3.94e+06
B14 | 972 | 0.00165 | 1.7e+06
B15 | 1710 | 0.00136 | 795000
B16 | 156 | 0.000412 | 2.64e+06
B17 | 140 | 0.000428 | 3.06e+06
B18 | 79 | 0.000226 | 2.85e+06
B19 | 189 | 0.000531 | 2.81e+06
B20 | 105 | 0.00016 | 1.52e+06
B21 | 15200 | 0.0538 | 3.53e+06
B22 | 84 | 0.000336 | 4e+06
